The source of these data is publication PMC10542519.

Assay [1] addresses PhiPA3 Chimallin C (ChmC; gp61), full-length (Pseudomonas phage PhiPA3). The experiment in a line: SEC-MALS. (In general: In gel filtration, larger molecules generally elute earlier.)
Assay [2] addresses PhiPA3 ChmC-ΔC (residues 204-251 removed) (Pseudomonas phage PhiPA3). Briefly: SEC-MALS.

By stoichiometry N is commonly meant the number of molecules, sites or subunits per partner or assembly. With “PhiPA3 Chimallin C (ChmC; gp61), full-length (natural protein)”, the stoichiometry N in assay [1] was found to be 4.
“PhiPA3 ChmC-ΔC (residues 204-251 removed) (domain or fragment)”: the stoichiometry N in assay [2] was 4.
